Several values for one entry are separate records, joined by “and”; a condition that tells them apart may be missing. Equal values may be shown once. Entries after “also recorded” stand apart in the source; their conditions may differ.
Experiments:
[1] = test system: fibroblast-seeded collagen gels; experiment: Collagen gel contraction by fibroblasts; format: cell-based, chicken
Procedure: 1.5 ml Vitrogen 100 collagen gels were made in 35 mm plates. Secondary fibroblasts were plated at 0.4×10^6 cells/35 mm plate on top of the gels. After the cells had adhered to the collagen, cCAF was added to experimental plates. The medium was replaced approximately every 16 hr with 1 ml of 199 supplemented with 0.3% tryptose phosphate broth and 2% donor calf serum, and 750 ng cCAF [68 nM] or N-peptide [480 nM] was added to the experimental plates. Control plates contained media only. After 4 days, gels were released. Treatment was continued for 2 more days and gels were photographed every 12 hours. The photographs were used for evaluation of gel contraction by determining the area of the gel using NIH image analysis.

[2] = test system: Full-thickness excision wounds on the underside of the wings of 2-week-old chicks; experiment: Wounding experiment: closure of excision wounds; format: in vivo, chicken; conditions: 1 μg every other day
Procedure: Full-thickness excision wounds (approximately 0.5×0.5 cm) were made, using a scalpel blade, on the underside of the wings of 2-week-old chicks. The left wing was treated with vehicle alone (water), and the right wing with […] cCAF [90 nM]. The wounds were photographed immediately after wounding and then covered with Biocclusive bandage. 50 μl vehicle (water) or cCAF was deposited through the bandage onto the wound using a 30-gauge needle. This procedure was repeated the next day and every other day thereafter. On days 3, 5 and 7, the bandages were removed and the wounds were photographed before replacing the bandages and applying the treatment again.

CEFs = experiment: Trypan blue staining for necrotic cells; format: cell-based; conditions: cCAF-treated fibroblasts
Procedure: The supernatant of treated and untreated CEFs was collected, the cells centrifuged to a pellet and resuspended in a small volume of medium. 1% trypan blue was added to a final concentration of 0.5% trypan blue. Cells were stained for 5min and then counted in a hemocytometer. Necrotic cells stained blue.

α-SMA mRNA = experiment: RT-PCR for α-SMA mRNA in fibroblasts; format: cell-based, chicken
Procedure: Total RNA for α-SMA was extracted using TRIzol reagent from untreated fibroblasts, fibroblasts treated with 750 ng/ml cCAF or fibroblasts treated for varying periods of time with cCAF. The RT-PCR procedure was performed using the Promega Access RT-PCR System, which is designed to finish reverse transcription (RT) and polymerase chain reaction (PCR) in one tube, and following the protocol recommended by Promega, except that 1.5 times the recommended amount of dNTP, reverse transcriptase and Tfl DNA polymerase were used to ensure strong synthesis of 18S ribosomal RNA. The reaction conditions included: 1 μg total RNA, first strand synthesis at 48° C. for 45 min, then 95° C. for 5 min to inactivate the reverse transcriptase, followed by DNA amplification at 95° C. for 45 sec, 58° C. for 60 sec, 68° C. for 90 sec for 40 cycles. Finally, 68° C. for 7 min to extent the strands. 2 μl of Quantum mRNA classic 18S primers (Ambion) were added to reaction to produce the control band. The followin primers used for the amplification of α-SMA: […]
RT-PCR products were analyzed by electrophoresis in 1.5% agarose and the density of the bands was measured by densitometry using Glyko BandScan.

[3] = test system: granulation tissue of excision wounds; experiment: Histology of excision wounds (Masson Trichrome); format: in vivo, chicken; conditions: 1 μg cCAF every other day; versus vehicle
Procedure: (§1) At the specified time points, chickens were euthanized with sodium pentobarbitol. The wounded wings were collected and fixed for 18 hrs in 4% paraformaldehyde and decalcified for 3 days in 5% formic acid, 2.5% formaldehyde at 4° C. The tissue was embedded in paraffin and sectioned. Sections were stained with Masson Trichrome to visualize interstitial collagen. Other sections were immunolabeled for α-SMA. Sections were deparaffinized with 3×15 min washes in Hemo-De and rehydrated in 5 min washes of ethanol (100%, 95%, 70%, 50%, 30%). After rinsing with PBS, sections were fixed in 2% paraformaldehyde 1 hr. General autofluoresence and non-specific staining were blocked by 30 min in 0.1M glycine in PBS, followed by 30 min in 1% Evans Blue in PBS to quench red blood cell autofluorescence. Sections were incubated with α-SMA antibody in 1% BSA in PBS (1:50) for 2 hr at room temperature. After 3×10 min washes in 0.1% BSA in PBS, the sections were incubated for 40 min with anti-mouse Alexa antibody in 1% BSA in PBS (1:200). They were then washed and mounted with Vectashield.

[4] = test system: primary chicken embryonic connective tissue fibroblasts; experiment: Fibroblast growth assay; format: cell-based
Procedure: Primary chicken embryonic connective tissue fibroblasts (CEFs) were cultured as previously described in Martins-Green and Feugate (1998). Briefly, these fibroblasts were isolated from 10-day-old chicken embryo body walls, plated at 6×10^6 cells/100 mm plate and cultured for 4 days in 199 medium with 5% donor calf serum, 1% chick serum and 0.3% tryptose phosphate broth. These cultures were passaged once (secondary cultures); the cells were plated at 0.4×10^6 cells/35 mm plate in 199/tryptose phosphate broth and 2% donor calf serum.
Secondary fibroblasts were plated at 0.4×10^6 cells/35 mm plate and cCAF was added to experimental plates. For each experiment, plating efficiency was determined by trypsinizing plates four hours after plating. Cells were counted with a Coulter particle counter to confirm even plating of cells. The media was replaced approximately every 16 hr with 1 ml of […] 199 medium containing 0.3% tryptose phosphate broth and 2% donor calf serum, and 100-1000 ng cCAF [9-90 nM] or C- or N-peptide [64-640 nM] was added to the experimental plates, whereas, control plates contained media only. On day 3, plates were trypsinized to remove all cells and cells were counted using a Coulter counter. To test for specificity, anti-cCAF rabbit serum was pre-incubated with cCAF (3 μl serum/750 ng cCAF [68 nM] or N-peptide [480 nM]) for 1 hr at room temperature before being added to cells.

[5] = test system: primary chicken embryonic connective tissue fibroblasts; experiment: Acridine orange/ethidium bromide staining for apoptotic cells; format: cell-based; conditions: cCAF-treated fibroblasts
Procedure: Plates of fibroblasts treated with cCAF as described above were rinsed twice with PBS and incubated in 0.1 mg/ml acridine orange/ethidium bromide in PBS for 1 min. After rinsing twice with PBS and adding a cover slip, the cells were immediately viewed by epifluorescence microscopy and random fields were photographed. The number of cells with blebbing cytoplasm and fragmented nuclei were counted from the entire field of each photograph.

α-SMA = experiment: Immunostaining for α-SMA in granulation tissue of excision wounds; format: in vivo, chicken; conditions: 1 μg cCAF every other day; versus vehicle
Procedure: as §1

B1: cCAF: CXC chemokine chicken Chemotactic and Angiogenic Factor, full-length, SEQ ID NO:2; purified or synthesized (protein)
chain: LSQGRTLVKMGNELRCQCISTHSKFIHPKSIQDVKLTPSGPHCKNVEIIATLKDGREVCLDPTAPWVQLIVKALMAKAQLNSDAPL
modifications: Gallusgallus
notes: purified or synthesized
contraction of collagen gels after release ([1]; 750 ng/ml, 4-5 days treatment before release, versus untreated cells): much greater contraction; also recorded: stimulated fibroblasts to contract collagen gels more efficiently than untreated cells; also recorded: contracted the gels more tightly than did untreated cells
contraction of fibroblast clusters on collagen ([1]; versus control cells): form clusters that are much tighter and generally pull away from the collagen; also recorded: more contracted than clusters in control cells
wound closure at day 3 (days 0-3) ([2]; topical, versus vehicle (H2O) on contralateral wing): closed to a significantly greater degree than the vehicle-treated wounds
wound closure at day 5 ([2]; versus vehicle): closure of the control wounds was still less than that of the experimental wounds
wound closure at day 7 ([2]; versus vehicle): completely closed
necrotic cell death (CEFs): does not stimulate cell necrosis; also recorded: does not cause cells to undergo necrosis
time by which α-SMA mRNA drops below control levels (α-SMA mRNA; 750 ng/ml cCAF): ≤ 24 h
time to increase in α-SMA mRNA levels (α-SMA mRNA; 750 ng/ml cCAF): ≤ 1 h
time α-SMA mRNA levels remain elevated after treatment (α-SMA mRNA; 750 ng/ml cCAF): up to 12 hr
period with increasing amounts of α-SMA mRNA relative to control (α-SMA mRNA; after initiation of treatment, normalized to 18S rRNA): 1 to 12 h
density of granulation tissue, days 3 and 5 [3]: denser repair tissue than the control wounds; also recorded: appears more dense earlier in wound healing
granulation tissue at day 7 [3]: minimal; also recorded: appear to be already remodeling
time required for the decrease in cell numbers to be detected [4]: 2 to 3 days
effect on fibroblast growth / cell numbers ([4]; 3 days treatment, 2% donor calf serum): suppresses fibroblast proliferation in a dose-dependent pattern
dose of greatest (maximum) suppression of fibroblast proliferation ([4]; 3 days treatment, increasing doses of cCAF): 750 ng/mL and 500 to 750 ng/mL
time of greatest suppression of proliferation ([4]; after plating, not shown): 2 days
suppression of fibroblast proliferation compared to untreated cells ([4]; fibroblasts cultured in the presence of serum (2% donor calf serum), p<0.01): 25%
fibroblast growth relative to untreated cells ([4]; of untreated cells): about 75%
apoptotic morphology (cytoplasmic blebbing, nuclear fragmentation) [5]: do not show the characteristics of apoptotic cells; also recorded: compact cytoplasm and an intact nucleus characteristic of healthy cells
cells labeling for α-SMA in granulation tissue, day 3 (α-SMA): numerous cells labeling for α-SMA; also recorded: many more cells that label for α-SMA
cells labeling for α-SMA in granulation tissue, day 5 (α-SMA): many more myofibroblasts than the control wounds; also recorded: many more cells staining for α-SMA
cells labeling for α-SMA in granulation tissue, day 7 (α-SMA): continue to have more labeled cells than do control wounds
